The Human Domainome abundance scans (Beltran et al. 2025)
± gives the uncertainty stated by the source.

B1: Protein piccolo, residues 1058 to 1114; numbered along this chain, Q9Y6V0 (parent)
chain: TCPLCKTELNIGSKDPPNFNTCTECKNQVCNLCGFNPTPHLTEIQEWLCLNCQTQRA

Variants of: B1
Experiment: abundance fitness (aPCA) (normalised: wild type 0, dead -1); higher = more abundant; growth selection in yeast, the domain comes from the species named
Details: Homo sapiens

| Variant | abundance fitness |
| --- | --- |
| TCPLCKTELNIGSKDPPNFNTCTECKNQVCNLCGFTPTPHLTEIQEWLCLNCQTQRA | -0.28 ± 0.14 |
| TCPLCKTELNIGSKDPPNFNTCTECKNQVCNLCGFCPTPHLTEIQEWLCLNCQTQRA | -0.054 ± 0.12 |
| TCPLCKTELNIGSKDPPNFNTCTECKNQVCNLCGFKPTPHLTEIQEWLCLNCQTQRA | 0.08 ± 0.14 |
| TCPLCKTELNIGSKDPPNFNTCTECKNQVCNLVGFNPTPHLTEIQEWLCLNCQTQRA | -0.743 ± 0.12 |
| TCPLKKTELNIGSKDPPNFNTCTECKNQVCNLCGFNPTPHLTEIQEWLCLNCQTQRA | -0.63 ± 0.18 |
| TCPLCKKELNIGSKDPPNFNTCTECKNQVCNLCGFNPTPHLTEIQEWLCLNCQTQRA | 0.043 ± 0.12 |
| TCPLCKSELNIGSKDPPNFNTCTECKNQVCNLCGFNPTPHLTEIQEWLCLNCQTQRA | -0.09 ± 0.081 |
| TCPLCKCELNIGSKDPPNFNTCTECKNQVCNLCGFNPTPHLTEIQEWLCLNCQTQRA | -0.56 ± 0.1 |
| TCPLCKTELNIGSKDPPNFNTCTEPKNQVCNLCGFNPTPHLTEIQEWLCLNCQTQRA | -0.577 ± 0.1 |
| TCPLCKTELNIGSKDPPNFNTCTETKNQVCNLCGFNPTPHLTEIQEWLCLNCQTQRA | -0.606 ± 0.13 |
| TCPLCKTELNIGSKDPPNFNTCTECKNQVCNLCGFNPTPHLTEIQEWLCLFCQTQRA | -0.306 ± 0.12 |
| TCPLCKTELNIGSKDPPNFNTCTECKNQVCNLCGFNPTPHLTEIQEWLCLNCQKQRA | 0.196 ± 0.12 |
| TCPLCSTELNIGSKDPPNFNTCTECKNQVCNLCGFNPTPHLTEIQEWLCLNCQTQRA | 0.059 ± 0.076 |
| TCPLCKTPLNIGSKDPPNFNTCTECKNQVCNLCGFNPTPHLTEIQEWLCLNCQTQRA | -0.09 ± 0.093 |
| TCPLCKTDLNIGSKDPPNFNTCTECKNQVCNLCGFNPTPHLTEIQEWLCLNCQTQRA | -0.14 ± 0.12 |
| TCPLCKTELNIGSKDPPNFETCTECKNQVCNLCGFNPTPHLTEIQEWLCLNCQTQRA | -0.012 ± 0.14 |
| TCPLCKTELNIGSKDPPNFITCTECKNQVCNLCGFNPTPHLTEIQEWLCLNCQTQRA | -0.115 ± 0.14 |
| TCPLCKTELNIGSKDPPNFGTCTECKNQVCNLCGFNPTPHLTEIQEWLCLNCQTQRA | 0.055 ± 0.083 |
| TCPLCKTELNIGSKDPPNFMTCTECKNQVCNLCGFNPTPHLTEIQEWLCLNCQTQRA | 0.188 ± 0.16 |
| TCPNCKTELNIGSKDPPNFNTCTECKNQVCNLCGFNPTPHLTEIQEWLCLNCQTQRA | 0.036 ± 0.21 |
| TCPGCKTELNIGSKDPPNFNTCTECKNQVCNLCGFNPTPHLTEIQEWLCLNCQTQRA | 0.067 ± 0.084 |
| TCPLCKTELNIGSKDPPNFNTCTECKNQVCNLCGFNPTPHLTEIQEWLCCNCQTQRA | -0.04 ± 0.13 |
| TCPLCKTELNIGSKDPPNFNTCTECKNQVCNLCGFNPTPHLTEIQEWLCANCQTQRA | 0.129 ± 0.12 |

| Variant | abundance fitness |
| --- | --- |
| TCPLCKTELNIGSKDPINFNTCTECKNQVCNLCGFNPTPHLTEIQEWLCLNCQTQRA | -0.448 ± 0.16 |
| TCPLCKTELNIGSKDPPNFNTCTECKNMVCNLCGFNPTPHLTEIQEWLCLNCQTQRA | 0.186 ± 0.14 |
| TCPLCKTELNIGSKDPPNFNTCTECKNQVCNLCGFNPTPHLTEIQQWLCLNCQTQRA | 0.007 ± 0.17 |
| TCPLCKTELNIGSKDPPNFNTCTECKNQVCNLCGFNPTPHLTEIQRWLCLNCQTQRA | -0.085 ± 0.1 |
| TCPLCKTELWIGSKDPPNFNTCTECKNQVCNLCGFNPTPHLTEIQEWLCLNCQTQRA | -0.676 ± 0.1 |
| TCPLCKTELEIGSKDPPNFNTCTECKNQVCNLCGFNPTPHLTEIQEWLCLNCQTQRA | -0.022 ± 0.11 |
| TCPLCKTELNIGSKDPPNFNTCYECKNQVCNLCGFNPTPHLTEIQEWLCLNCQTQRA | 0.024 ± 0.22 |
| TCPLCKTELNIGSKDPPNFNTCLECKNQVCNLCGFNPTPHLTEIQEWLCLNCQTQRA | -0.163 ± 0.1 |
| TCPLCKTELNIGSKDPPNFNTCIECKNQVCNLCGFNPTPHLTEIQEWLCLNCQTQRA | -0.187 ± 0.15 |
| TCPLCKTELNIGSKDPPNFNTCTECKNQVCNLCGFNPTNHLTEIQEWLCLNCQTQRA | -0.214 ± 0.21 |
| TCPLCKTELNIGSKDPPNFNTCTECKNQVCNLCGFNPTRHLTEIQEWLCLNCQTQRA | 0.008 ± 0.087 |
| TCPLCKTELNIGSKDPPNFNTCTECKNQVCNLCGFNPTKHLTEIQEWLCLNCQTQRA | 0.193 ± 0.15 |
| TCPLCKTELNIGSKDPPNFNTCTECKNQVCNLCGFNPTPHLTEIQEWLCLNCFTQRA | -0.275 ± 0.26 |
| TCPLCKTELNIGSKDPPNFNTCTECKNQVCNLCGFNPTPHLTEIQEWLCLNCGTQRA | -0.016 ± 0.1 |
| TCPLCKTELNIGSKDPPNFNTCTECKNQVCNLCGFNPTPHLTEIQEWLCLNCNTQRA | 0.118 ± 0.39 |
| TCPLCKTELNIGVKDPPNFNTCTECKNQVCNLCGFNPTPHLTEIQEWLCLNCQTQRA | -0.456 ± 0.098 |
| TCPLCKTELNIGGKDPPNFNTCTECKNQVCNLCGFNPTPHLTEIQEWLCLNCQTQRA | -0.525 ± 0.1 |
| TCPLCKTELNIGSKDPPNFNTCTECKNQVCNLCGFNPTPHLTEYQEWLCLNCQTQRA | -0.274 ± 0.22 |
| TCPLCKTELNIGSKDPPNFNTCTECKNQVCNLCGFNPTPHLTEIQEWLALNCQTQRA | -0.66 ± 0.13 |
| TCPLCKTELNIGSKDPPNFNTCTECKNQVCNLCGFNPTPHLTEIGEWLCLNCQTQRA | 0.037 ± 0.12 |
| TCPLCKTELNIGSKDPPNFNTCTECKNQVCNLCGFNPTPHLTEIDEWLCLNCQTQRA | -0.254 ± 0.39 |
| TCPLCKTELNQGSKDPPNFNTCTECKNQVCNLCGFNPTPHLTEIQEWLCLNCQTQRA | 0.065 ± 0.12 |
| TCPLCKTELNIGSKDPPNVNTCTECKNQVCNLCGFNPTPHLTEIQEWLCLNCQTQRA | -0.211 ± 0.12 |
